Measured values as given in article PMC5888754.
Changes are numbered by the printed parent chain. Where two headings read alike, the source gives them in different places.

Tests used:
[1] = system: CYV-VP3 (Culex Y virus); experiment: competition
[2] = target: Dcr-2;Loqs-PD (LqPD) (Drosophila melanogaster?;Drosophila …, UniProt A1ZAW0;Q9VJY9-4 1-1722;1-359, |); experiment: single-molecule TIRF
[3] = target: T1, DXV-VP3 (Drosophila X virus, UniProt Q96724 724-1032); experiment: single-molecule TIRF
T1 sequence: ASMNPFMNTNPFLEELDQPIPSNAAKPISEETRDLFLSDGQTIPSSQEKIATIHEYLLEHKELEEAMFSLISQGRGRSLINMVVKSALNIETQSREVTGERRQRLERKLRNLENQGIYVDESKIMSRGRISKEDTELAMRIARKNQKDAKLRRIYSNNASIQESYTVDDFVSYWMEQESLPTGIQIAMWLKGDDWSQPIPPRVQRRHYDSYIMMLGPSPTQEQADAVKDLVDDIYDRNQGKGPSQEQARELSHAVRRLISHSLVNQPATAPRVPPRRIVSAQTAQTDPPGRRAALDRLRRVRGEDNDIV

[4] = target: T2, DCV-1A (Drosophila C virus, UniProt O36966 1-97); experiment: single-molecule TIRF
T2 sequence: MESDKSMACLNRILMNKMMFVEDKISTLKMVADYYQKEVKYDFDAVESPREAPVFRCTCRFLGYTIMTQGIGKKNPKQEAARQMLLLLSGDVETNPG

[5] = target: T2, DCV-1A; experiment: single-molecule TIRF; remark: listed apart in the source
[6] = target: T2, DCV-1A; experiment: single-molecule TIRF; remark: listed apart in the source

Question: “GGCAAUGAAAGAUCGCGGGUCUGCUCAAACACUCCGUUAUGUAGCAUUCCUUGAUCGUGAGAUUCUUCUU / AAGAAGAAUCUCACGAUCAAGGAAUGCUACAUAACGGAGUGUUUGAGCAGACCCGCGAUCUUUCAUUGCC [70-nt dsRNA blunt end]” was tested. Which binding signal [1] did it give?
Answer: 80 % inhibition

B1: 70-nt dsRNA blunt end (dsRNA)
RNA 1: GGCAAUGAAAGAUCGCGGGUCUGCUCAAACACUCCGUUAUGUAGCAUUCCUUGAUCGUGAGAUUCUUCUU
RNA 2: AAGAAGAAUCUCACGAUCAAGGAAUGCUACAUAACGGAGUGUUUGAGCAGACCCGCGAUCUUUCAUUGCC
Question: Does B1 bind [2]?
Answer: binds

B2: 50-nt dsRNA (structured_RNA)
RNA: GGGACCUCAUCCAACAUAUCAAACUCCAUCAUCCAACAUAUCAAACUCCAGUCGAGUGGAGUUUGAUAUGUUGGAUGAUGGAGUUUGAUAUGUUGGAUGAGGUCCCAA
Question: Does B2 bind [3]?
Answer: binds

Question: Does B2 bind [4]?
Answer: binds

B3: pre-let-7a-1 (2 mismatches) (structured_RNA)
RNA: UGAGGUAGUAGGUUGUAUAGUUUUAGGGUCACACCCACCACUGGGAGAUAACUAUACAAUCUACUGUCUUUCU
Question: Does B3 bind [5]?
Answer: binds

B4: pre-miRNA (no mismatches) (structured_RNA)
RNA: B3 RNA with G5A, U6C
Question: Does B4 bind [6]?
Answer: binds
